{"source": "patent US7452531B2", "about": "“Compositions and methods for tumor-targeted delivery of effector molecules” (Vion Pharmaceuticals, Inc., priority 1999, dated 2008)", "origin": "cited, not measured here", "system": "primary tumors", "details": "100 mg/kg/day", "data": [{"substance": "angiostatin", "values": [{"measurement": "toxic side effects", "value": "without toxic side effects"}, {"measurement": "tumor growth", "value": "strong inhibition of tumor growth"}]}]}
